Data as given in patent US20240209076A1 (KODIAK SCIENCES, published 2024).
Positions count from the first letter of the chain named. In names and notes the source's numbering stands.

B1: anti-IL-6 antibody, parent sequence (heavy chain WT, light chain WT) (antibody, V domains shown)
VH: EVQLVESGGGLVQPGGSLRLSCAASGFTFSPFAMSWVRQAPGKGLEWVAKISPGGSWTYYSDTVTGRFTFSLDTSKSTAYLQMNSLRAEDTAVYYCARQLWGYYALDIWGQGTLVTVSS
VL: DIQLTQSPSSLSASVGDRVTITCSASISVSYMYWYQQKPGKAPKLLIYDMSNLASGVPSRFSGSGSGTDFTLTISSLQPEDFATYYCMQWSGYPYTFGQGTKVEIK
notes: Tested as full antibody from Expi293 cells in an engineered human IgG1 framework (L234A, L235A, G237A, L443C, EU); also called wild-type; parent molecule
B2: anti-IL-6 antibody, light chain M32L (heavy chain WT) (antibody, V domains shown)
VH: B1 VH
VL: B1 VL with M32L
notes: See note of m2; also called WT / M32L
B3: anti-IL-6 antibody, heavy chain WT, light chain I27F (antibody, IgG1, V domains shown)
VH: B1 VH
VL: B1 VL with I27F
notes: Full IgG1 tested; V domains derived as in m2
B4: anti-IL-6 antibody, heavy chain D62Q, light chain WT (antibody, IgG1, V domains shown)
VH: B1 VH with D62Q
VL: B1 VL
notes: as for B3
B5: anti-IL-6 antibody, heavy chain variant II (M34W, G66D, I108V) / light chain variant III (M32L, M50D, N52S, M88Q) (antibody, V domains shown)
VH: B1 VH with M34W, G66D, I108V
VL: B1 VL with M32L, M50D, N52S, M88Q
notes: See note of m39; also called M34W, G66D, I108V/ M32L, M50D, N52S, M88Q; II/III
B6: anti-IL-6 antibody, heavy chain F29H, light chain WT (antibody, IgG1, V domains shown)
VH: B1 VH with F29H
VL: B1 VL
notes: as for B3
B7: anti-IL-6 antibody, heavy chain I108E, light chain WT (antibody, IgG1, V domains shown)
VH: B1 VH with I108E
VL: B1 VL
notes: as for B3
B8: anti-IL-6 antibody, heavy chain WT, light chain I27W (antibody, IgG1, V domains shown)
VH: B1 VH
VL: B1 VL with I27W
notes: as for B3
B9: anti-IL-6 antibody, heavy chain G26R, light chain WT (antibody, IgG1, V domains shown)
VH: B1 VH with G26R
VL: B1 VL
notes: as for B3
B10: anti-IL-6 antibody, heavy chain WT, light chain A25S (antibody, IgG1, V domains shown)
VH: B1 VH
VL: B1 VL with A25S
notes: as for B3
B11: anti-IL-6 antibody, heavy chain WT, light chain A25T (antibody, IgG1, V domains shown)
VH: B1 VH
VL: B1 VL with A25T
notes: as for B3
B12: anti-IL-6 antibody, heavy chain I108S, light chain WT (antibody, IgG1, V domains shown)
VH: B1 VH with I108S
VL: B1 VL
notes: as for B3
B13: anti-IL-6 antibody, heavy chain G26S, light chain WT (antibody, IgG1, V domains shown)
VH: B1 VH with G26S
VL: B1 VL
notes: as for B3
B14: anti-IL-6 antibody, heavy chain variant I (M34I, G66D, I108V) / light chain variant V (M32L, M50D, M88Q) (antibody, V domains shown)
VH: B1 VH with M34I, G66D, I108V
VL: B1 VL with M32L, M50D, M88Q
notes: See note of m39; also called M34I, G66D, I108V/ M32L, M50D, M88Q; I/V
B15: anti-IL-6 antibody, heavy chain M34W, light chain WT (antibody, IgG1, V domains shown)
VH: B1 VH with M34W
VL: B1 VL
notes: Full IgG1 tested; VL as in m2
B16: anti-IL-6 antibody, heavy chain G66D, light chain WT (antibody, IgG1, V domains shown)
VH: B1 VH with G66D
VL: B1 VL
notes: Full IgG1 tested
B17: anti-IL-6 antibody, heavy chain variant I (M34I, G66D, I108V) / light chain variant IV (M32L, M50A, N52S, M88Q) (antibody, V domains shown)
VH: B1 VH with M34I, G66D, I108V
VL: B1 VL with M32L, M50A, N52S, M88Q
notes: See note of m39; also called M34I, G66D, I108V/ M32L, M50A, N52S, M88Q; I/IV
B18: anti-IL-6 antibody, heavy chain F32G, light chain WT (antibody, IgG1, V domains shown)
VH: B1 VH with F32G
VL: B1 VL
notes: as for B3
B19: anti-IL-6 antibody, heavy chain D107E, light chain WT (antibody, IgG1, V domains shown)
VH: B1 VH with D107E
VL: B1 VL
notes: as for B3
B20: anti-IL-6 antibody, heavy chain L100Q, light chain WT (antibody, IgG1, V domains shown)
VH: B1 VH with L100Q
VL: B1 VL
notes: as for B3
B21: anti-IL-6 antibody, heavy chain W57F, light chain WT (antibody, IgG1, V domains shown)
VH: B1 VH with W57F
VL: B1 VL
notes: as for B3
B22: anti-IL-6 antibody, heavy chain F29Y, light chain WT (antibody, IgG1, V domains shown)
VH: B1 VH with F29Y
VL: B1 VL
notes: as for B3
B23: anti-IL-6 antibody, heavy chain L106F, light chain WT (antibody, IgG1, V domains shown)
VH: B1 VH with L106F
VL: B1 VL
notes: as for B3
B24: anti-IL-6 antibody, heavy chain I51R, light chain WT (antibody, IgG1, V domains shown)
VH: B1 VH with I51R
VL: B1 VL
notes: as for B3
B25: anti-IL-6 antibody, heavy chain G66E, light chain WT (antibody, IgG1, V domains shown)
VH: B1 VH with G66E
VL: B1 VL
notes: as for B3
B26: anti-IL-6 antibody, heavy chain I108F, light chain WT (antibody, IgG1, V domains shown)
VH: B1 VH with I108F
VL: B1 VL
notes: as for B3
B27: anti-IL-6 antibody, heavy chain WT, light chain I27L (antibody, IgG1, V domains shown)
VH: B1 VH
VL: B1 VL with I27L
notes: as for B3
B28: anti-IL-6 antibody, heavy chain variant I (M34I, G66D, I108V) / light chain variant III (M32L, M50D, N52S, M88Q) (antibody, human IgG1, V domains shown)
VH: B1 VH with M34I, G66D, I108V
VL: B1 VL with M32L, M50D, N52S, M88Q
notes: also called M34I, G66D, I108V/ M32L, M50D, N52S, M88Q; I/III

Columns and labels:
[1] = biological target: T1, recombinant human IL-6 (human, UniProt P05231 30-212); experiment: SPR (Biacore), purified IgG on Protein A, 37 C
T1 construct: Flowed in solution over the captured antibodies
Method: (§1) Antibodies were captured on a Protein A chip (GE) by injecting 1:20 dilution of cell supernatant at 10 μL/min for 60 seconds. […] The sensor chip was regenerated by a 60 seconds injection of 10 mM Glycine pH 1.7 at flow rate of 50 μL/min. […] For this setup, 1 μg/mL of purified antibody was injected over a Protein A chip at 10 μL/min for 25-28 seconds. Data analysis for supernatant and purified samples were performed using BIAevaluation software (GE). All sensorgrams were double reference subtracted and fit using a 1:1 Langmuir binding model.
T1 sequence (P05231 30-212 limits assumed): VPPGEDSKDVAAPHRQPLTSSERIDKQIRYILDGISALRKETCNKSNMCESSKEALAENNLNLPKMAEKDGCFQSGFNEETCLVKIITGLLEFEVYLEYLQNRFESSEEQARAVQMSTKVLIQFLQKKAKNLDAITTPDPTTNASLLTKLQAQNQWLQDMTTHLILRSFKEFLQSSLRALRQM

[2] = biological target: T1, recombinant human IL-6; experiment: SPR (Biacore), supernatant IgG on Protein A, 25 C
Method: as §1

[3] = biological target: T2, recombinant human IL-6 (human, UniProt P05231 30-212); experiment: SPR Biacore, supernatant Ab on Protein A chip, IL-6 analyte, 25 C
T2 construct: Bought protein
Method: as §1
T2 sequence (P05231 30-212 limits assumed): as above

[4] = biological target: T2, recombinant human IL-6; experiment: SPR Biacore, purified Ab on Protein A chip, IL-6 analyte, 37 C
Method: as §1

Binder	Kd [1] [nM]	koff [1] [s⁻¹]	kon [1] [M⁻¹ s⁻¹]	Kd [2] [nM]	koff [2] [s⁻¹]	kon [2] [M⁻¹ s⁻¹]	Kd [3] [nM]	koff [3] [s⁻¹]	kon [3] [M⁻¹ s⁻¹]	Kd [4] [nM]	koff [4] [s⁻¹]	kon [4] [M⁻¹ s⁻¹]
B1	0.158	0.000139	880000	0.399	0.000126	315000	–	–	–	–	–	–
B2	–	–	–	–	–	–	0.199	0.000118	591000	0.395	0.00035	885000
B3	0.685	0.00069	1.01e+06	0.443	0.000193	436000	–	–	–	–	–	–
B4	0.687	0.000601	875000	0.366	0.000148	403000	–	–	–	–	–	–
B5	–	–	–	–	–	–	0.37	0.000173	–	0.507	0.000551	1.19e+06
B6	0.466	0.000397	850000	0.273	0.000135	495000	–	–	–	–	–	–
B7	0.404	0.000372	921000	0.305	0.000174	571000	–	–	–	–	–	–
B8	0.719	0.000764	1.06e+06	0.33	0.000161	487000	–	–	–	–	–	–
B9	0.465	0.000326	702000	0.302	0.000121	402000	–	–	–	–	–	–
B10	0.438	0.000342	782000	0.197	0.000105	535000	–	–	–	–	–	–
B11	0.425	0.000378	889000	0.235	0.000119	508000	–	–	–	–	–	–
B12	0.391	0.000336	858000	0.256	0.000141	554000	–	–	–	–	–	–
B13	0.463	0.00039	842000	0.209	0.000115	551000	–	–	–	–	–	–
B14	–	–	–	–	–	–	0.386	–	–	0.602	0.00073	–
B15	0.394	0.000236	599000	0.39	0.000115	296000	–	–	–	–	–	–
B16	0.0695	0.000136	1.96e+06	0.0902	0.000117	1.3e+06	–	–	–	–	–	–
B17	–	–	–	–	–	–	0.323	0.000214	462000	0.556	0.000757	1.15e+06
B18	0.569	0.00037	650000	0.318	0.000133	418000	–	–	–	–	–	–
B19	0.527	0.000402	762000	0.29	0.000147	509000	–	–	–	–	–	–
B20	0.499	0.00041	823000	0.384	0.000153	398000	–	–	–	–	–	–
B21	0.524	0.000453	864000	0.222	0.000128	577000	–	–	–	–	–	–
B22	0.444	0.000374	842000	0.266	0.000133	499000	–	–	–	–	–	–
B23	0.634	0.000541	852000	0.314	0.000185	591000	–	–	–	–	–	–
B24	0.505	0.000343	679000	0.165	7.6e-05	462000	–	–	–	–	–	–
B25	0.0895	0.000171	1.91e+06	0.107	0.00011	1.02e+06	–	–	–	–	–	–
B26	0.587	0.000401	683000	0.399	0.000146	365000	–	–	–	–	–	–
B27	0.553	0.000449	811000	0.332	0.000145	437000	–	–	–	–	–	–
B28	–	–	–	–	–	–	0.552	0.0002	–	0.625	0.000702	1.22e+06
